Assays:
[1] = system: E. coli total aminoacyl-tRNA synthetases; experiment: tRNA aminoacylation assay of RNAP products; format: biochemical; conditions: for desired (functional) tRNA in total RNA products: without gel extraction, maximum charging at 30 min
Protocol: FIGS. 11A-11B depict synthesis of tRNA^Arg by Syn5 and T7 RNA polymerase. A) Synthesis of tRNA^Arg at analytical scale by various amounts of Syn5 and T7 RNA polymerase. Using radioactively labeled CTP, the tRNA^Arg and N+1 product (as marked) produced by 22, 67, 200 nM Syn5 and T7 RNA polymerase at 37° C. are shown. […] The DNA encoding E. coli tRNA^ArgACG is directly downstream of a Syn5 or T7 promoter for the cognate RNA polymerase to synthesize run-off tRNA transcript. B) Synthesis of tRNA^Arg at preparative scale by Syn5 and T7 RNA polymerase. The sequencing gel is showing the analysis of the total RNA products by Syn5 and T7 RNAP at 37° C. in a 200 µl reaction. RNAs were purified by either ZYMO RNA clean kit or phenol/chloroform extraction followed by ethanol precipitation (P/C/E), as noted on top of the gel. The native tRNA^Arg (with modifications) overexpressed and purified from E. coli cells was used as a size marker. The two major bands in the total RNAs are tRNA^Arg and N+1 product as marked.
tRNA Aminoacylation Assay tRNA aminoacylation assay was performed as described previously (Tan et al.). A reaction containing 100 mM Tris-HCl, pH 7.5, 30 mM KCl, 12 mM MgCl2, 0.5 mM DTT, 4 mM ATP, 0.2 […]RNA (purified native E. coli tRNA^Arg (Zhu et al. (2012)), or purified tRNA^Arg transcripts from Syn5 or T7 RNAP reaction using RNA Clean & Concentrator™-5 kit), 15 µM [^3H] arginine (15 Ci/mmol), and 4 µM E. coli total aminoacyl-tRNA synthetases was incubated at 37° C. for the indicated time period. 5 µl reaction mixtures were spotted onto Whatman DE(81) filters and reactions stopped by 10% TCA solution containing 0.5 mM arginine. The filters were washed twice with 10% TCA and once with ethanol, and then dried. The amount of amino acid charged to tRNA was determined by measuring radioactivity remained on the filters.

[2] = system: plasmid pET24 DNA harboring the Syn5 RNAP gene (pET24-S5RNAP); experiment: Filter-binding transcription assay (3H-AMP incorporation); format: biochemical
Protocol: FIGS. 4A-4B depict the effect of temperature and pH on Syn5 RNAP activity. A) Temperature. B) pH. RNA polymerase activity was measured as described in Materials and Methods described herein. The reactions contained 6 mM MgCl2, 200 µM 4 rNTPs (^3H-ATP), 50 nM Syn5 RNAP and 4 nM template (pET24-S5RNAP). The pH was 8.0 for assays in A and the temperature was 24° C. for B. Reactions were terminated and the amount of AMP incorporated was measured at 3, 10, and 30 min. The AMP incorporation was linear in this time range and the data measured at 10 min are presented.
FIGS. 5A-5C depict reaction requirements for Syn5 RNAP. A) Effect of NaCl on Syn5 RNAP activity. B) Effect of KCl on Syn5 and T7 RNAP (dashed line) activity. C) MgCl2 concentration on Syn5 RNAP activity. Reactions contained 200 µM 4 rNTPs (^3H-ATP), 50 nM Syn5 RNAP and 4 nM template (pET24-S5RNAP). For A and B, reactions also contained 6 mM MgCl2. For C, 160 mM KCl was present. Reactions were terminated and the amount of AMP incorporated was measured at 2.5, 5, and 10 min. AMP incorporation was linear in this time range and the data measured at 10 min are presented.
Basic reaction mixtures contained 40 mM Tris-HCl (pH 8.0 unless otherwise specified), 2 mM spermidine, 10 mM DTT, 200 µM[…] GTP, C[…]P, UTP and ^3H-ATP (20 cpm/pmole), 1.5 U/µl RNaseOUT™, 50 nM Syn5 or T7 RNAP and 4 nM plasmid pET24 DNA harboring the Syn5 RNAP gene (pET24-S5RNAP) that contains a single Syn5 promoter in the RNAP gene and a single T7 promoter preceding the gene. Reaction mixtures were incubated at 24° C. unless otherwise specified.
For the assays described in FIG. 7, reaction mixtures contained 40 mM Tris-HCl (pH 8.0), 6 mM MgCl2, 2 mM spermidine, 10 mM DTT, 20 nM Syn5 or T7 RNAP, 20 nM pET24-S5RNAP DNA, 1 mM ^3H-ATP (20 cpm/pmole), CTP, UTP (or GTP), and varying amounts of GTP (or UTP). 160 mM KCl was added for the Syn5 RNAP reactions. After various times the reactions were stopped by the addition of 20 mM EDTA. 4 µl of the mixtures were then loaded onto Whatman DE81 filter paper disks and the disks were washed to remove the unincorporated ^3H-ATP. The amount of insoluble ^3H-AMP, corresponding to nucleotides incorporated into newly synthesized RNA, was measured using a scintillation counter. The data were analyzed using Prism software.

| Molecule | desired (functional) tRNA in total RNA products [1] | sensitivity to ionic strength ([2]; KCl titration, FIG. 5B) | amino acid charging activity of products ([1]; [3H] arginine, 37° C.) | potassium required for maximal activity [2] | metal ions in place of Mg2+ as cofactor ([2]; 10 mM Ca2+, Co2+, Cu2+ or Ni2+) | metal ions in place of Mg2+ as cofactor ([2]; 10 mM Zn2+ or Mn2+) | increase of activity by NaCl ([2]; 80 mM NaCl, 6 mM MgCl2) | stimulation of activity by KCl ([2]; 160 mM KCl, 6 mM MgCl2) | activity remaining ([2]; 300 mM KCl) | pH of highest activity ([2]; 24° C.) | % of maximum activity ([2]; at 0° C.) | % of maximum activity ([2]; at 37° C.) | % of maximum activity ([2]; at 42° C.) | Km ([2]; in the presence of 160 mM KCl, read-out: Km for MgCl2 as cofactor) | optimum temperature ([2]; pH 8.0, 6 mM MgCl2, 50 nM RNAP, 4 nM template) |
| --- | --- | --- | --- | --- | --- | --- | --- | --- | --- | --- | --- | --- | --- | --- | --- |
| T7 RNAP: RNA polymerase encoded by bacteriophage T7, from New England Biolabs [reference compound] | 15% | highly sensitive to the ionic strength of the reaction |  |  |  |  |  |  |  |  |  |  |  |  |  |
| Syn5 RNAP: single subunit DNA-dependent RNA polymerase from marine cyanophage Syn5, amino acid sequence SEQ ID NO:23 (protein, Amino acid sequence of a cyanophage Syn5 RNAP) MSFDLIARQLQRETEAAELARKRLQDARREANERSYASSNIESRKAIATFLDPIAQRIGERLFTLRRGTGAVDAAEVYKHLKNADHHHLALITMKTALDVLGKDPEPQIQQLTTAIGRNIQLELRLTYYAEENPELYKQASRFFHAGTGTRQKATVIKLKFNREGIEWDQWSRVTCHKVGQWLMLAMADVTGWIERATDRTSGGRKTKTRICYSREFLQHRDTILAAAEQLAFCQWPMLCPPIEWSNDHNGGYLSEQIRRVNPLIRKTGPLGTRKQGDIPLAMLNNLQGQAYKVNPEVLDIANHCYESNVTVGKFIRHAPLPVPPSPGEDCTEDQLTAYKRARREAEDFNAQISQKNWRTTEVMYVARKYADEASFWMPASFDYRGRVYFLNTALNPQGTDFDKALLYFAEEGPVNEWWLSFHVATTYGLDKETMVNRVQWARDNHELIDRIASDPVRHTEWHDADEPWCFLAACLEYKACVIDGTKQTSGLPIGIDATCSGLQHLAAMTRCGRTAALVNVTPTDKPADAYKTVAQASLKHLPKEQHEWITRKVTKRPVMCTPYGVTMSSARGYIRDQLVKDGHKEDLRSPGVLNGIVKAIFNEAIPEVIPGPVQVMAWLKRSAGQIIDRGDSTITWTTPSGFEVVQDLKKSKTYEVKTRIMGGARIKLQVGDGFTDEPDRDHHKSALAPNVVHSNDASLLHLTFAFWDKPFTVIHDCVLGRSCDMDQMGSDIRLHFAEMYKADVMQDWADQVGVELPVDLIKNTLDIDSVNQSLYFFS | 40% |  | much higher than that obtained from the T7 RNAP reaction | 160 mM | cannot replace Mg^2+ | A small amount of activity | two-fold | three-fold | 10% | 8.0 | 15% | 8% | 2% | ~2500 µM | 24 °C |
